Numbering of substitutions follows the chain as printed.
How the values were obtained:
Experiment in all cases: SPR, mAb captured, C2 mutant analyte;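 note: Anti-C2 mAbs captured on goat anti-human IgG Biacore CM5 chips, alanine or serine C2 surface mutants flowed over at 37 °C, double-referenced sensorgrams fitted to a 1:1 binding model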
human C2 W420A = target: T1, human C2 W420A (human, UniProt P06681 21-752)
T1 sequence: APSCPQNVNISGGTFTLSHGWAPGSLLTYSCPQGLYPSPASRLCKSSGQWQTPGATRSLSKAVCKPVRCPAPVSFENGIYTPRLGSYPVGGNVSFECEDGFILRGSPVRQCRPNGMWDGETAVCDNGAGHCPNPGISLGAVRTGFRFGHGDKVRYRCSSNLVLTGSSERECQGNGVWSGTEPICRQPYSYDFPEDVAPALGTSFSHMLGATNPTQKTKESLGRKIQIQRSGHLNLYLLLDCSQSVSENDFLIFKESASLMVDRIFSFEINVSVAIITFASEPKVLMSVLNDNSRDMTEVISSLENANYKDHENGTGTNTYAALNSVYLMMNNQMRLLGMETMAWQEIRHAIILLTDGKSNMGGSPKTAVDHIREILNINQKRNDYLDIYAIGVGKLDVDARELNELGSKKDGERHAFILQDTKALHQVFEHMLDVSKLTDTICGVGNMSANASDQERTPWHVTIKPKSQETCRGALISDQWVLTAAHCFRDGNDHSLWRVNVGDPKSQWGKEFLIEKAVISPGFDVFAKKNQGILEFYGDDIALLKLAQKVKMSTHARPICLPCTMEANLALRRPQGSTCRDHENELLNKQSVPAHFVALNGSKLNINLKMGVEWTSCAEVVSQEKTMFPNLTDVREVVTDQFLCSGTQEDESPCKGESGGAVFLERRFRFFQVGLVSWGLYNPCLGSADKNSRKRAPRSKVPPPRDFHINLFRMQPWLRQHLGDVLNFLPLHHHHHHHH

human C2 K430A = target: T2, human C2 K430A (human, UniProt P06681 21-752)
T2 sequence: T1 sequence with A400W, K410A

human C2 D454A = target: T3, human C2 D454A (human, UniProt P06681 21-752)
T3 sequence: T1 sequence with A400W, D434A

human C2 R493A = target: T4, human C2 R493A (human, UniProt P06681 21-752)
T4 sequence: T1 sequence with A400W, R473A

Kd (human C2 W420A): 34.9 nM
Kd (human C2 K430A): 308 nM
Kd (human C2 D454A): 111 nM
Kd (human C2 R493A): 25.3 nM
B1: RF16-214 (antibody, V domains shown)
VH: EVQLLESGGGLVQPGGSLRLSCAASGFTFSWYQMMWVRQAPGKGLEWVSRIYPSGGGTAYADSVKGRFTISRDNSKNTLYLQMNSLRAEDTAVYYCARDAGYGDNWGQGTLVTVSS
VL: QSALTQPPSVSVSPGQTASITCSGDKLGEKYASWYQQKAGQSPVMVIYQDRKRPSGIPERFSGSNSGNTATLTISGTQAMDEADYYCQAWDTRAVVFGGGTKLTVLG
